This series concerns the target T1, PrimPolY89D1-354 (polymerase domain) (human, UniProt Q96LW4 1-354, Y89D).
T1 sequence: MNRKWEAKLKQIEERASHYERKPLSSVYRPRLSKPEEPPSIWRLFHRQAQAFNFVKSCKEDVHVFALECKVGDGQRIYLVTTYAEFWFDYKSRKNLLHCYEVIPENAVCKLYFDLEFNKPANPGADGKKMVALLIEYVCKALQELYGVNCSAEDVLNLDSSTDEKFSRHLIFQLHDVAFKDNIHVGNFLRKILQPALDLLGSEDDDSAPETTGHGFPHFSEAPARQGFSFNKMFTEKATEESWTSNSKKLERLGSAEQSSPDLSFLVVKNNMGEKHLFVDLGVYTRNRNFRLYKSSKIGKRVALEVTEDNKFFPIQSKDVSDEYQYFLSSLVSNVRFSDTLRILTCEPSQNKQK
In words: EMSA; 10 mM Mg2+; EMSA: 60 nM DNA, 10 mM Bis-Tris-Propane-HCl pH 7.0, 10 mM MgCl2, 1 mM DTT, 25 C, 60 min; 5% polyacrylamide gel in 0.5x TBE. Conditions: protein: recombinant; label: 5'-Hex on strand 1 (HP-20); 20 bp duplex, 5' overhang 30 nt on template strand (S12), other end blunt. For orientation: In EMSA bound probe runs differently from free probe, usually more slowly.

For one molecule, Kd results are on record in paper PMC4231748, “Human PrimPol mutation associated with high myopia has a DNA replication defect”.

B1: Overhanging DNA substrate (HP-20 primer / ND-50 TemplateTT) (dsDNA)
DNA 1: TGTCGTCTGTTCGGTCGTTC
DNA 2: CGCGCAGGGCGCACAACAGCCTTGAAGACCGAACGACCGAACAGACGACA
Take B1: the Kd (commonly the concentration at which binding is half-saturated) is 2550 nM.
